Assay results as given in PMC5122317.

Molecular target: iRFP (Rhodopseudomonas palustris)
Assay: SEC

stoichiometry N: 1.92 fold
Substance: iRFP
